Test [1] deals with T1, p40 peptide amino acids 1-17 (MLYLENNAQTQFSEPQY) (human).
T1 peptide: MLYLENNAQTQFSEPQY
Kind of test: epitope mapping, peptide ELISA and dot blot. The text has this: (§1) In order to determine the peptide sequence of p40 that is recognized by anti-p40 antibodies such as BC28, epitope mapping may be conducted perhaps using two assays: direct ELISA and even dot blot. In an ELISA assay, the sensitivity and specificity of the anti-p40 [BC28] antibody may be determined by measuring the antibody titer at about 1:500 and about 1:1000. Overlapping peptides at a length of about 15 amino acids each, covering the human p40 protein sequence from perhaps 1 to 17 amino acids, may be used to determine a sequence of BC28 binding.
In general terms: In an ELISA, binding on a coated surface is turned into a signal by an enzyme label.

In test [2] the target is T2, p40 peptide amino acids 1-9 (MLYLENNAQ) (human).
T2 peptide: MLYLENNAQ
Kind of test: epitope mapping, peptide ELISA and dot blot.
Excerpt: as §1

B1: mouse monoclonal anti-p40 antibody BC28 (antibody, mouse IgG1, V domains shown)
VH: GVKLVESGGGFVKPGGSLTLSCAASGFTFSIYAMSWVRQTPEKRLEWVTSISSGDDIFYPDNLKGQFTISRDNARNILYLQMSSLRSEDTAIYYCVRHGYNATDYWGQGTSVTVSS
VL: DVLMTQTPLSLPVSLGDQASISCRSSQSIVYSNGNTYLEWYLQKPGQSPKLLIYKVSNRFSGVPDRFSGSGSGTDFTLKISRVEAEDLGVYYCFQGSHVPFTFGSGTKLEIK
notes: also called p40 [BC28]; p40 (M)
Turning to B1, the binding result in test [1] and in test [2] was “binds” throughout.

(Values after patent US20160009795A1 (BIOCARE MEDICAL, published 2016).)
